Target: T1, human CD80 (human, UniProt P33681 35-288)
T1 construct: whole, on cells; also called human CD80-expressing acute myelogenous leukemia cell line (Cat#CRL-2740, ATCC)
T1 sequence (looked up): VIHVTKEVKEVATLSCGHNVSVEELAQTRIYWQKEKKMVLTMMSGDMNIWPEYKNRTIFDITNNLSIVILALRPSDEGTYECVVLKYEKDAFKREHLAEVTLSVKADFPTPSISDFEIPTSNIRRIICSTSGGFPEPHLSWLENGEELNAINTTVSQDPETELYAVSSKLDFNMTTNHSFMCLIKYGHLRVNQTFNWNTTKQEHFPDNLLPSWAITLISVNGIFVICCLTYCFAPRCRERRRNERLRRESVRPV
Test: flow cytometry on human CD80-expressing AML cells; grade = binding percentage of the wild-type, ++++ (100%)
Description: FIGS. 1A-C. […] PE-SA only; biotinylated protein control [porcine CD3εγ ectodomain single-chain fusion protein (pCD3εγ)] […] B) Bar graph presentation of the mean fluorescence intensity (MFI) from flow cytometry binding analysis data as described in A). Different concentrations of biotinylated pCD3εγ were used as non-specific fluorescence control. Error bars are included based on the calculated standard deviation. […] The concentration of the competitor is indicated. All figures of 1A-C are representatives of multiple individual experiments.

binding result: binds
B1: Non-N-Glycosylated soluble human CTLA-4-6×His (receptor)
chain: KAMHVAQPAVVLASSRGIASFVCEYASPGKATEVRVTVLRQADSQVTEVCAATYMMGNELTFLDDSICTGTSSGNQVALTIQGLRAMDTGLYICKVELMYPPPYYLGIGAGTQIYVIDPEPCPDSDHHHHHH
modifications: biotinylated for the direct binding stain (sites not given); unlabeled in the blocking assay
notes: Expressed in Pichia pastoris; also called wild-type soluble human CTLA-4; human CTLA-4 wild-type

Reference: patent US20160017018A1 (GENERAL HOSPITAL, published 2016)
